Among the data in patent US20240261423A1 are Polyreactivity Score values, retold here.

In the experiment the target is Insulin. The experiment in a line: low stringency direct binding ELISA on coated insulin, antibody dilutions from 10 µg/mL.
Sequence of Insulin (P01308 25-54, chain 1 of 2): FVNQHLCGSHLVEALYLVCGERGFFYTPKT
Sequence of Insulin (P01308 90-110, chain 2 of 2): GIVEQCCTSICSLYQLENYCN

“Negative Control (polyreactivity assay) (antibody)” yielded a Polyreactivity Score of 5.03.

In turn, “Positive Control (polyreactivity assay) (antibody)” gave a Polyreactivity Score of 12.2.
